Data set [1] addresses T1, mtMenB (Mycobacterium tuberculosis, UniProt P9WNP5). Description: not stated. The class given is binding.
Data set [2] addresses T1, mtMenB. Description: X-ray co-crystal structure, […] Å. Format: binding. As to conditions: partial occupancy, weak density, acyl part not resolved; pH 8.0.
Another data set has as its target ecMenB (Escherichia coli, UniProt P0ABU0). Description: X-ray co-crystal structure, […] Å. Format: binding. To be noted: all six active sites of the hexamer; stable substrate analogue; pH 6.5.
Data set [3] relates to CC(C)(COP(=O)(O)OP(=O)(O)OC[C@H]1O[C@@H](n2cnc3c(N)ncnc32)[C@H](O)[C@@H]1OP(=O)(O)O)[C@@H](O)C(=O)NCCC(=O)NCCSC(=O)CCC(=O)c1ccccc1C(=O)O. Description: purified protein. Format: biochemical, Escherichia coli. To be noted: pH 7.0; 25.0 °C.
For data set [4] the test system is unchanged. Description: purified protein. To be noted: pH 7.0; 25.0 °C.
In data set [5] the test system is CC(C)(COP(=O)(O)OP(=O)(O)OC[C@H]1O[C@@H](n2cnc3c(N)ncnc32)[C@H](O)[C@@H]1OP(=O)(O)O)[C@@H](O)C(=O)NCCC(=O)NCCSC(=O)CCCc1ccccc1C(=O)O. The experiment in a line: purified protein. To be noted: pH 7.0; 25.0 °C.

T1 sequence (P9WNP5 whole entry): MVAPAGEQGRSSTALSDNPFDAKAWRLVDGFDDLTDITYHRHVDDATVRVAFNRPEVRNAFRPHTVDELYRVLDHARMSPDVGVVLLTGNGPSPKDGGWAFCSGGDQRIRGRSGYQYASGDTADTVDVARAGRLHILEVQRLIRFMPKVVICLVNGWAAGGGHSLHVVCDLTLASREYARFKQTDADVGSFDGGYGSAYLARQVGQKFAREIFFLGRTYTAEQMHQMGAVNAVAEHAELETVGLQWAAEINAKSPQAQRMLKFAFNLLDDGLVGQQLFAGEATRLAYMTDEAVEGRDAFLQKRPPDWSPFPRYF
Chain of ecMenB (P0ABU0 whole entry): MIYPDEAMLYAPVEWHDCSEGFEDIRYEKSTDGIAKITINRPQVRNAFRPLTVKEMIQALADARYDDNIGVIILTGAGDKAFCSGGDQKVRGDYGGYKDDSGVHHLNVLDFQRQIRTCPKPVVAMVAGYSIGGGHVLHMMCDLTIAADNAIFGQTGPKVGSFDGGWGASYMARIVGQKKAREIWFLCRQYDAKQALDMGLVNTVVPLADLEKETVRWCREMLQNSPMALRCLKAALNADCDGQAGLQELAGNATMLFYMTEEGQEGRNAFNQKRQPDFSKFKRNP

On mtMenB [1], `COC(=O)c1ccccc1C(=O)CCC(=O)SCCNC(=O)CCNC(=O)[C@H](O)C(C)(C)COP(=O)(O)OP(=O)(O)OC[C@H]1O[C@@H](n2cnc3c(N)ncnc32)[C@H](O)[C@@H]1OP(=O)(O)O` [OSB-CoA methyl ester] registered a Kd of 11.5 ± 1.2 µM.
Turning to `CC(C)(COP(=O)(O)OP(=O)(O)OC[C@H]1O[C@@H](n2cnc3c(N)ncnc32)[C@H](O)[C@@H]1OP(=O)(O)O)[C@@H](O)C(=O)NCCC(=O)NCCNC(=O)CCC(=O)c1ccccc1C(=O)O` [OSB-NCoA], at mtMenB [2], the “X-ray co-crystal structure, 2.25 Å” value is reported as “Density for OSB-NCoA can be observed but is weak in chain C”. The “X-ray co-crystal structure, 2.00 Å” value on ecMenB is “In the structure of OSB-NCoA bound to ecMenB, the ligand can be observed in all six”.
For the compound (Escherichia coli K-12), the Km in data set [3] stood at 25.9 ± 3.3 µM.
On to (Mycobacterium tuberculosis H37Rv), for which the figures for the Km in data set [4] and in data set [5] were 22.4 ± 2.1 µM and 106 ± 31 µM, respectively. For the same compound, the kcat/Km in data set [5] was found to be 2.4 ± 0.7 M⁻¹ s⁻¹.

For orientation: Kd means the concentration at which binding is half-saturated. A lower Kd goes with a tighter complex. The Km is the substrate concentration at which the rate is half of its maximum. One may read the kcat/Km as the second-order rate constant that governs catalysis at low substrate concentration.

The record behind these values is publication PMC4119599 (Biochemistry, 2011).
